This experiment concerns the target recombinant full-length kif2a, MBP fusion protein (Xenopus) (UniProt Q91637). Briefly: pull-down; 1 µM MBP-kif2a added to stage 3 embryo cytoplasmic extract for 15 min, retrieved on amylose resin (15 min), washed with PBS with 0.01% Tween; importin α immunoblot quantified, normalized to kif2a intensity.
UniProt Q91637, sequence (Q91637 whole entry, the tested form may be a part): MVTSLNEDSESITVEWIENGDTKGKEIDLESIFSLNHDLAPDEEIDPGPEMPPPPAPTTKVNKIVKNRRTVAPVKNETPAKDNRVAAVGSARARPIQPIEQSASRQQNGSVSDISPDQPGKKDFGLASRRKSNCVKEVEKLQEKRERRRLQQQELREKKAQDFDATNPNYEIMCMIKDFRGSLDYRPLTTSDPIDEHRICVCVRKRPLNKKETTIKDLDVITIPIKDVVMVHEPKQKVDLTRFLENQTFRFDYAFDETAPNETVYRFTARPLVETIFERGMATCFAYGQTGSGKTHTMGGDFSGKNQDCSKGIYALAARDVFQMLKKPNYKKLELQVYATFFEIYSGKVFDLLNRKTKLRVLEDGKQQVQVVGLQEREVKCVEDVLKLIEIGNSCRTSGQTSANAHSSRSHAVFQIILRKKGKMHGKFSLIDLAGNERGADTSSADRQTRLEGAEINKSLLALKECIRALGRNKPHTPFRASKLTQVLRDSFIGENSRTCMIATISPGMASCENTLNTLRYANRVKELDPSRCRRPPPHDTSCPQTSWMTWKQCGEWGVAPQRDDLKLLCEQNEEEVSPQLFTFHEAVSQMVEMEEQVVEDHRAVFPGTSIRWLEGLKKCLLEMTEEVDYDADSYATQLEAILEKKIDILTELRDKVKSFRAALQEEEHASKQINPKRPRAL

With “importin α (endogenous, Xenopus laevis egg and embryo extracts) (natural protein)”, the fold of importin α retrieved from stage 3 extracts against stage 8 extracts came to 10 fold.
